This note sets out measurements from the RNAGym collection of RNA variant scans (doi:10.1073/pnas.2313332121).

The labels stand for the following.
B1: TPR t1 (parent)
chain: GACCAAUCUGCCCUCAGAGCUCGAGAACAUCUUCGGAUGCAGAGGAGGCAGGCUUCGGUGGCGCGAUAGCGCCAACGUCCUCAACCUCCAAUGCAUCCCACCACAUGAUGAUGCCUGAAGAGCCUUGGUUUUUUG

In the data set the parent is B1. Kind of data set: polymerase ribozyme fitness, log enrichment relative to wild type (log ratio); higher = more active; in vitro selection for triplet polymerase activity. A digest of the protocol:
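Both subunits of a heterodimeric triplet polymerase ribozyme were given their own mutant library, built by PCR and transcribed. Each library was annealed with a biotinylated primer, the partner subunit and triplets, incubated frozen at −7 °C, and its extended constructs gel-excised, captured on streptavidin beads and amplified by RT-PCR, all in one round done in triplicate. Fitness is the logarithm of genotype enrichment relative to wild-type enrichment, with replicates averaged by inverse-variance weighting. That logarithm is base 2, and Illumina-sequenced genotypes needed ≥10 input reads and ≥1 read per output.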
For C28U A41U G48A, the “polymerase ribozyme fitness (log ratio)” value is -5.18.
C28G G48U: the “polymerase ribozyme fitness (log ratio)” value is -3.56.
For A27G C89A U92A C98A A111C, the “polymerase ribozyme fitness (log ratio)” value is -6.08.
Regarding A26C C97U, the “polymerase ribozyme fitness (log ratio)” value was -5.92.
For the variant A27U G61A C86U, the “polymerase ribozyme fitness (log ratio)” value is -2.19.
A24U G117U: the “polymerase ribozyme fitness (log ratio)” value was -6.09.
Take A27U U55G C56A G61A C62G U112C G120U G128A U130C: the “polymerase ribozyme fitness (log ratio)” value was -7.21.
The value for A26C C82A was -5.2.
With A27G C115U, the “polymerase ribozyme fitness (log ratio)” value is -4.58.
In the case of C28U G63C, the “polymerase ribozyme fitness (log ratio)” value was -3.08.
As for C28U G42C, the “polymerase ribozyme fitness (log ratio)” value was -3.36.
The value for C28A C64U C70A C99U G110U G120C U132A was -7.34; that for A27C A50C A84C G120A was -3.23; that for C28A U96A C97A G110A C124A was -3.05.
For A26C G45C U87C, the “polymerase ribozyme fitness (log ratio)” value was -6.66.
Consider G25A G63C, for which the “polymerase ribozyme fitness (log ratio)” value was -6.68.
As for A27U C72U A83U G127A, the “polymerase ribozyme fitness (log ratio)” value is -4.42.
The value for A27U A29G A83C was -2.59.
C28A A43U: the “polymerase ribozyme fitness (log ratio)” value is -5.18.
With G25U G47U, the “polymerase ribozyme fitness (log ratio)” value was -6.74.
For the variant A27U G69U, the “polymerase ribozyme fitness (log ratio)” value was -1.45.
A27C A41C U106C: the “polymerase ribozyme fitness (log ratio)” value is -5.25.
For A27U C53G A66G, the “polymerase ribozyme fitness (log ratio)” value was -4.36.
In the case of A27U C72U U106G U129A G135U, the “polymerase ribozyme fitness (log ratio)” value is -5.91.
The value for C28U C64U G93U was -3.83; that for A26U G69C was -4.28.
Regarding A27C U67G G107A U109A C123G C124G, the “polymerase ribozyme fitness (log ratio)” value was -6.73.
For the variant A27G A84C C99U, the “polymerase ribozyme fitness (log ratio)” value is -5.83.
For A26U U54C the value was -2.99; for A26G G45A G48U, -3.98.
For the variant A26C A43G G69A U78G C82G C115A C123U U130G, the “polymerase ribozyme fitness (log ratio)” value was -6.36.
For the variant A27U A29G G63C G127C, the “polymerase ribozyme fitness (log ratio)” value is -6.04.
Turning to A26U G60A C97U G110U, the “polymerase ribozyme fitness (log ratio)” value is -5.7.
As to C28U U106A, the “polymerase ribozyme fitness (log ratio)” value is -0.471.
With C28U U112A G122A U129A, the “polymerase ribozyme fitness (log ratio)” value was -6.54.
A26G A29G G39U: the “polymerase ribozyme fitness (log ratio)” value was -3.81.
With C28G C40U G57U G63C, the “polymerase ribozyme fitness (log ratio)” value is -4.66.
For A27C G60A G110A the value was -6.05; for C28U G47C C73A C97U, -3.8; for A27U C76U A95G U130G, -4.08.
The value for A27C A84G was -5.
With C28A U54C U106C, the “polymerase ribozyme fitness (log ratio)” value is -5.05.
For the variant C28U G44U C62U G63C G110C U126A U132C, the “polymerase ribozyme fitness (log ratio)” value is -4.61.
Consider A26U G61C, for which the “polymerase ribozyme fitness (log ratio)” value is -3.63.
For A27C G57U G69U C124G, the “polymerase ribozyme fitness (log ratio)” value turned out to be 0.217.
In the case of G25U C56U C123G, the “polymerase ribozyme fitness (log ratio)” value was -6.4.
The value for A27G A83G C86U was -2.33; that for G25A A26U A43G G61C U78A C102U G110C was -7.68; that for G25C G61U was -3.53.
A27U G60U G63A U109A C124U: the “polymerase ribozyme fitness (log ratio)” value was -6.47.
On to C28U C62U G69U, for which the “polymerase ribozyme fitness (log ratio)” value was -1.04.
The value for C28A G93C G110A was -0.645; that for G25A C49A G57A C89U C97G C115G was -6.47; that for A26U G71A was -3.13.
The value for A27U A68U A90C G93A C101G G110U was -7.92.
In the case of A27U G57C C89G G120A U131A, the “polymerase ribozyme fitness (log ratio)” value was -4.12.
The value for A27U A50U was -4.65; that for A26G G60U G77A A84C C102G U112A U116C was -5.99.
Consider C28U C70A, for which the “polymerase ribozyme fitness (log ratio)” value is -4.5.
Take A27C C31U A46C A84C C89A G110U U112A C123U U125A: the “polymerase ribozyme fitness (log ratio)” value was -6.63.
Turning to A26G G45C A75U, the “polymerase ribozyme fitness (log ratio)” value is -4.25.
With A26U U78C, the “polymerase ribozyme fitness (log ratio)” value is -2.92.
On to A27U G44A U129A, for which the “polymerase ribozyme fitness (log ratio)” value is -6.51.
As to A26G C73A A74U U78A, the “polymerase ribozyme fitness (log ratio)” value was -2.49.
Take A27U C72U U87G: the “polymerase ribozyme fitness (log ratio)” value was -3.11.
For the variant A27C U78A, the “polymerase ribozyme fitness (log ratio)” value is -3.62.
A27C C49U: the “polymerase ribozyme fitness (log ratio)” value is -4.08.
On to A27U G60C C82G G120C G128U, for which the “polymerase ribozyme fitness (log ratio)” value was -4.87.
Consider A27G C88A, for which the “polymerase ribozyme fitness (log ratio)” value was -2.13.
Regarding C28A U78C A91U U106A G110U, the “polymerase ribozyme fitness (log ratio)” value came out at 0.263.
Take G25A C70A: the “polymerase ribozyme fitness (log ratio)” value is -6.74.
The value for C28U A83C was -2.54.
The value for A27G C72U was -1.76; that for C28U U112C U116A was -1.82; that for G25A A121C was -4.05.
Turning to C28A G135U, the “polymerase ribozyme fitness (log ratio)” value is -4.58.
Regarding A27G A41U G48A C88A, the “polymerase ribozyme fitness (log ratio)” value was -5.84.
As to A27U G107A A121U G128U G135C, the “polymerase ribozyme fitness (log ratio)” value was -3.88.
As to A24U U32A G48C C70A A74U U81A A121G U125G, the “polymerase ribozyme fitness (log ratio)” value was -7.22.
A27C C28A A103U A105U U106G A111U G117U C123U: the “polymerase ribozyme fitness (log ratio)” value was -5.3.
Take G25C C97U C104A U109G: the “polymerase ribozyme fitness (log ratio)” value is -6.31.
For A26U U59A G63A the value was -5.57; for A24U G61A, -5.9.
